Measured values reported in patent US20150011730A1.

Columns and labels:
[1] = target: CDK2/cyclin A (as used in the binding assay) (UniProt P24941)
[2] = target: CDK4/cyclin D1 (as used in the binding assay) (UniProt P11802)
Chain of CDK4/cyclin D1 (as used in the binding assay) (P11802 whole entry, chain 1 of 2): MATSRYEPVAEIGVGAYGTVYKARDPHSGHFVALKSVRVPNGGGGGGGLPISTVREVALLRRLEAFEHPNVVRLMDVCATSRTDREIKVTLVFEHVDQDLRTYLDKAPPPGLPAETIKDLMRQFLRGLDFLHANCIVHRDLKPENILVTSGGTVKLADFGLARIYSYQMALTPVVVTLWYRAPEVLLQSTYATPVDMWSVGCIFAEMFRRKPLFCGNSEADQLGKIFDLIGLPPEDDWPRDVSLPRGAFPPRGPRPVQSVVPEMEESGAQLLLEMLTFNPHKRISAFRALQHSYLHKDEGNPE
Chain of CDK4/cyclin D1 (as used in the binding assay) (P24385 whole entry, chain 2 of 2, further chain): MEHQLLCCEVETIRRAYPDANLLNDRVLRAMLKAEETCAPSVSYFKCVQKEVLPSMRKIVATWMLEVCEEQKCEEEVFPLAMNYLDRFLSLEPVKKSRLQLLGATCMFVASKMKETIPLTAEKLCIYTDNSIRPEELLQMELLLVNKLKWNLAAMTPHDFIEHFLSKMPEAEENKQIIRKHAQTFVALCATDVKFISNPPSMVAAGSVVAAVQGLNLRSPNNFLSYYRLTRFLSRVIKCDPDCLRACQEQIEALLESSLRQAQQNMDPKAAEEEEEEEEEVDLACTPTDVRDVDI

Row | Substance | IC50 [1] | IC50 [2]
1 | R{bLeu}NMeF (peptide) | 0.505 µM | 61.2 µM
2 | R{bLeu}NMeF-NH2 (peptide) | 0.405 µM | 89.7 µM
